Literature values, collected in paper PMC10086210.
pKd: −log10 of the molar value.

Biological target: PD-L1 (Homo sapiens) (UniProt Q9NZQ7)
Sequence of UniProt Q9NZQ7 (Q9NZQ7 19-238): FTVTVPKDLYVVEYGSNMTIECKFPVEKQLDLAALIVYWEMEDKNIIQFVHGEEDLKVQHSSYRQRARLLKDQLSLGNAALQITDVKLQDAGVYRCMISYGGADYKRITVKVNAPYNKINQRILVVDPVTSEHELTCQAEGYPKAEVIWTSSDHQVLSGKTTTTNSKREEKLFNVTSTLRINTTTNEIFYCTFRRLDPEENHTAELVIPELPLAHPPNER

In the case of DPPA-1, the pKd is listed as 6.29.
